This is an account of results in US20180017572A1.

This assay concerns the target complement factor C1q (UniProt P02745). Nature of the assay: flow cytometry: BT-474 cells with 10 µg/mL antibody, then 10 µg/mL C1q, detected with PE-labeled anti-C1q antibody.

Sequence of complement factor C1q (P02745 23-245 limits assumed, chain 1 of 3): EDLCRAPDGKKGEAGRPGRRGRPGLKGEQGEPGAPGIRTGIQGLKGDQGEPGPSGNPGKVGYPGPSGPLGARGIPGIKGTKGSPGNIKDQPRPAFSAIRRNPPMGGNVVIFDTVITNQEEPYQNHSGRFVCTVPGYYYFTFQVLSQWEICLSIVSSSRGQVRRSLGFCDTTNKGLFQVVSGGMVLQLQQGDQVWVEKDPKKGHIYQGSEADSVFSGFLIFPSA
Sequence of complement factor C1q (P02746 28-253 limits assumed, chain 2 of 3, further chain): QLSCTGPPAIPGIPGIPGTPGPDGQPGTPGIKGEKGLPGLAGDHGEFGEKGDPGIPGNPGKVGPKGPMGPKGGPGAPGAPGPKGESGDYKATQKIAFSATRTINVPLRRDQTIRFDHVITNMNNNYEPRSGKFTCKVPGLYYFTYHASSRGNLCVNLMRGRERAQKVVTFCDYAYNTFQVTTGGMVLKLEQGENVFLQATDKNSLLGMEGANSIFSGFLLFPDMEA
Sequence of complement factor C1q (P02747 29-245 limits assumed, chain 3 of 3, further chain): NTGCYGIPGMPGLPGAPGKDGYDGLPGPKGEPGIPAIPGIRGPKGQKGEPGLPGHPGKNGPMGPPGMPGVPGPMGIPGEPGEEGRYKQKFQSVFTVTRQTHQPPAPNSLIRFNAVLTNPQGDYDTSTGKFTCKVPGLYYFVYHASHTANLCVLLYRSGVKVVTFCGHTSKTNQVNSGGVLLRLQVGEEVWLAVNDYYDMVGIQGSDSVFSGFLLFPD

In the case of “combination of trastuzumab and pertuzumab (from UniProt P0DOX5 2-449; P0DOX5 2-449)”, the PE-signal (geomean) (geomean PE-signal) is 2160.
